From paper PMC5146914 come the findings set out here.

The series can be described thus: circular dichroism. The conditions noted are these: 10 mM PBS; pH 7.4; 25 °C; 50-800 uM. In general terms: CD spectra are sensitive to the conformation of chiral molecules.
Turning to `CC(=O)N[C@H]1CCCCC[S@@](=O)C[C@@H](C(N)=O)NC(=O)[C@H](C)NC(=O)[C@H](Cc2ccccc2)NC(=O)[C@H](C)NC1=O`, the helicity was 92 rel %.

Consider `CC(=O)N[C@H]1CCCCC[S@@](=O)C[C@@H](C(N)=O)NC(=O)[C@H](CCC(=O)O)NC(=O)[C@H](C)NC(=O)[C@H](CCCCN)NC1=O`, for which the helicity was determined as 31 rel %. Next, `CC(=O)N[C@H]1CCCCC[S@@](=O)C[C@@H](C(N)=O)NC(=O)[C@H](C)NC(=O)[C@H](CCC(N)=O)NC(=O)[C@H](C)NC1=O`: 93 rel %; `CC(=O)N[C@H]1CCCCC[S@@](=O)C[C@@H](C(N)=O)NC(=O)[C@H](C)NC(=O)[C@H](C)NC(=O)[C@H](C)NC1=O`: 100 rel %; `CC[C@H](C)[C@@H]1NC(=O)[C@H](C)NC(=O)[C@@H](NC(C)=O)CCCCC[S@@](=O)C[C@@H](C(N)=O)NC(=O)[C@H](C)NC1=O`: 86 rel %. Take `CC(=O)N[C@H]1CCCCC[S@@](=O)C[C@@H](C(N)=O)NC(=O)[C@H](C)NC(=O)CNC(=O)[C@H](C)NC1=O`: the helicity was 54 rel %. Next, `CC(=O)N[C@H]1CCCCC[S@@](=O)C[C@@H](C(N)=O)NC(=O)[C@H](C)NC(=O)[C@H](CO)NC(=O)[C@H](C)NC1=O`: 65 rel %.
